# Reference: article PMC4687139, “The secreted L-arabinose isomerase displays anti-hyperglycemic effects in mice” (Microbial Cell Factories, 2015)
# How the values were obtained:
# [1] = molecular target: T1, secreted L-arabinose isomerase (L-AI) from L. sakei 23 K, purified from L. lactis MRS40 (Latilactobacillus sakei, UniProt Q38UH2); assay: bioconversion to D-tagatose, cysteine carbazole assay; type: biochemical; settings: 10 g/l D-galactose, 0.3 mg/ml enzyme, pH 5.0, 6.0 and 7.0
# T1 construct: gene araA; araA fused behind SPUsp45 signal peptide and LEISSTCDA propeptide (pSEC:LEISS:araA); secreted by Lactococcus lactis NZ9000 htrA clpP (MRS40), purified from supernatant; about 56 kDa monomer, homotetramer
# T1 sequence (Q38UH2 2-474 limits assumed): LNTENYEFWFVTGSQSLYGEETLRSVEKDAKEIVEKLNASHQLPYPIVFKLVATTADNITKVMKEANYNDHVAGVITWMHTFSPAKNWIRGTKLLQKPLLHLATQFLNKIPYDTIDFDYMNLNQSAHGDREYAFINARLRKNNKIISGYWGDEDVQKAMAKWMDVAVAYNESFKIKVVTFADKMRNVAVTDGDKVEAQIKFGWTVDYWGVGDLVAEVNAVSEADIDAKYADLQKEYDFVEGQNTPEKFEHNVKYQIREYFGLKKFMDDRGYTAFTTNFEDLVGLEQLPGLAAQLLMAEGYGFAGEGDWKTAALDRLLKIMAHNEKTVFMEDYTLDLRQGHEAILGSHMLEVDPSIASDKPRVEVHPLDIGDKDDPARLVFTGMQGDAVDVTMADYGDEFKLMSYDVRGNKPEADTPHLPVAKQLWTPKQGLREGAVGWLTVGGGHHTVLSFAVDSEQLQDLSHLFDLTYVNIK
# [2] = molecular target: the molecule itself; assay: SEC; gel filtration chromatography of the purified L-AI preparations, calibrated with protein markers of 669, 440, 232, 140 and 66 kDa; read together with SDS-PAGE (monomer about 56 kDa)
Molecule,"bioconversion to D-tagatose, cysteine carbazole assay [1]",stoichiometry N [2]
OC[C@H]1OC(O)[C@H](O)[C@@H](O)[C@H]1O (stereo partly drawn) [D-galactose],The purified secreted L-AI displayed a high efficiency to isomerize the D-galactose into D-tagatose,
"L-arabinose isomerase (L-AI) from Lactobacillus sakei 23 K, produced intracellularly in E. coli (enzyme, UniProt Q38UH2 1-474, looked up, L-arabinose isomerase (araA gene product) of Lactobacillus sakei 23 K; apparent molecular weight of the monomer about 56 kDa on SDS-PAGE; also called intracellular form; purified L-AI from E. coli; source: E. coli BL21 (strain MRS36, plasmid pMR36), over-expressed and purified as previously reported [30]) MLNTENYEFWFVTGSQSLYGEETLRSVEKDAKEIVEKLNASHQLPYPIVFKLVATTADNITKVMKEANYNDHVAGVITWMHTFSPAKNWIRGTKLLQKPLLHLATQFLNKIPYDTIDFDYMNLNQSAHGDREYAFINARLRKNNKIISGYWGDEDVQKAMAKWMDVAVAYNESFKIKVVTFADKMRNVAVTDGDKVEAQIKFGWTVDYWGVGDLVAEVNAVSEADIDAKYADLQKEYDFVEGQNTPEKFEHNVKYQIREYFGLKKFMDDRGYTAFTTNFEDLVGLEQLPGLAAQLLMAEGYGFAGEGDWKTAALDRLLKIMAHNEKTVFMEDYTLDLRQGHEAILGSHMLEVDPSIASDKPRVEVHPLDIGDKDDPARLVFTGMQGDAVDVTMADYGDEFKLMSYDVRGNKPEADTPHLPVAKQLWTPKQGLREGAVGWLTVGGGHHTVLSFAVDSEQLQDLSHLFDLTYVNIK",,4
"secreted L-arabinose isomerase (L-AI) from Lactobacillus sakei 23 K, secreted by L. lactis MRS40 (pSEC:LEISS:araA) (enzyme) LEISSTCDAALNTENYEFWFVTGSQSLYGEETLRSVEKDAKEIVEKLNASHQLPYPIVFKLVATTADNITKVMKEANYNDHVAGVITWMHTFSPAKNWIRGTKLLQKPLLHLATQFLNKIPYDTIDFDYMNLNQSAHGDREYAFINARLRKNNKIISGYWGDEDVQKAMAKWMDVAVAYNESFKIKVVTFADKMRNVAVTDGDKVEAQIKFGWTVDYWGVGDLVAEVNAVSEADIDAKYADLQKEYDFVEGQNTPEKFEHNVKYQIREYFGLKKFMDDRGYTAFTTNFEDLVGLEQLPGLAAQLLMAEGYGFAGEGDWKTAALDRLLKIMAHNEKTVFMEDYTLDLRQGHEAILGSHMLEVDPSIASDKPRVEVHPLDIGDKDDPARLVFTGMQGDAVDVTMADYGDEFKLMSYDVRGNKPEADTPHLPVAKQLWTPKQGLREGAVGWLTVGGGHHTVLSFAVDSEQLQDLSHLFDLTYVNIK",,4
